PMC3444267
One block for each substance: values may come before it.

Experiments:
Experiment in all cases: semi-native SDS-PAGE with anti-HA immunoblot
[1] = biological target: BnGLP3.1:HA (Brassica napus)
[2] = biological target: BnGLP3.2:HA (Brassica napus)
[3] = biological target: BnGLP8:HA (Brassica napus)
[4] = biological target: BnGLP12.1:HA (Brassica napus)
[5] = biological target: BnGLP12.2:HA (Brassica napus)

Substance: BnGLP3.1:HA (natural protein)
- stoichiometry N [1]: 6

Substance: BnGLP8:HA (natural protein)
- stoichiometry N [3]: 6

Substance: BnGLP12.1:HA (natural protein)
- stoichiometry N [4]: 6

The remaining lines, values ahead:

- stoichiometry N [2]: 6
Substance: BnGLP3.2:HA (natural protein)

- stoichiometry N [5]: 6
Substance: BnGLP12.2:HA (natural protein)
